Laboratory results reported in the Human Domainome abundance scans (Beltran et al. 2025).

B1: Protein piccolo, residues 1058 to 1114; numbered along this chain, Q9Y6V0 (parent)
chain: TCPLCKTELNIGSKDPPNFNTCTECKNQVCNLCGFNPTPHLTEIQEWLCLNCQTQRA

Variants of: B1
Test: abundance fitness (aPCA) (normalised: wild type 0, dead -1); higher = more abundant; growth selection in yeast, the domain comes from the species named
Details: Homo sapiens

Abundance fitness: each site, then its substitutions
L48: V -0.165; E -0.131; D -0.297; G -0.355; M -0.312; C 0.164; W -0.061; R -0.079; H -0.177; A -0.051; N -0.063
P37: V 0.14; E 0.138; D 0.247; G 0.039; M -0.098; S 0.016; L -0.023; W -0.012; R 0.032; Q 0.097; Y -0.451; T 0.079; C 0.05; K -0.054; A -0.02
H40: W -0.206; S 0.156; K -0.06; E -0.065; I -0.018; Y -0.13; C 0.046; Q -0.065; T 0.185; L -0.02; P 0.085; V 0.051; R 0.093; A 0.076; F -0.105; M 0.004
E43: M -0.191; D -0.096; G 0.003; S -0.2; L -0.398; Q -0.167; N -0.123; K -0.003; I -0.301; H -0.671; T -0.091; V -0.202; F -0.289; Y -0.443; A -0.048; R 0.11; W -0.09
C33: V -0.743; Q -0.623; E -0.349; Y -1.26; F -0.92; I -0.933; L -0.819; A -0.588; M -0.812; K -0.822; T -0.952; P -0.795; W -1.01; N -0.641; S -0.646; D -0.336; H 0.076; R -0.729
L50: V 0.102; C -0.04; D 0.208; F -0.25; G 0.084; M -0.565; K 0.078; Y -0.239; I -0.173; W -0.215; H 0.145; E 0.157; A 0.129; R 0.182; N 0.019; P 0.329; T 0.208; S 0.141; Q 0.15
L32: N -0.176; D -0.032; A 0.124; I -0.097; H 0.073; V 0.104; K 0.172; M -0.131; Y -0.218; T -0.017; C -0.017; G 0.279; W 0.015; P -0.134; S 0.128; R 0.175
T42: I -0.105; S -0.011; H 0.123; D -0.015; A 0.055; V 0.073; W -0.166; Q 0.062; C 0.064; K -0.056; N 0.097; L -0.091; P -0.137; G 0.122; E -0.122; M -0.253; Y -0.301
C52: D -0.755; E -0.448; A -0.85
I44: T -0.273; F 0.155; K 0.247; N -0.144; V -0.014; S 0.045; G 0.02; Y -0.274; E 0.146; C 0.026; W -0.312; H -0.166; P 0.126; R -0.138; M -0.214; Q 0.074; A -0.022; D -0.38
W47: K -0.111; P -0.039; T -0.195; M -0.06; C -0.134; I -0.049; F -0.065; G 0.056; L 0.056; Q -0.09; E 0.031; H -0.135; A -0.102; N -0.354; D 0.006; S -0.03; Y -0.493
